According to the DeepSol protein solubility set:

assay: soluble on expression in E. coli; label from the status in PepcDB or PDB records

Soluble on expression in E. coli, not soluble:
MGSDKIHHHHHHMITEELQKLYQEYTGVPVENITELPSSGSNRRYFRLTGAKTLIGVCGTSVEENDAFLYMAAHFRKSGLPVPEVHIVSENKSYYLQEDLGDTLLFHAIEKGRATSVFSEEEKELLRKTVRLLPAIQFAGADGFDFSRCYPQPEFNQRSILWDLNYFKYCFLKATGMEFQEDKLEDDFQKMSDVLLRSSSATFMYRDFQSRNVMIKDGEPWFIDFQGGRKGPFYYDVASFLWQAKAKYPDSLRQELLKEYIDALRKYQPIDEPYFYSQLRHFVLFRTLQVLGAYGFRGYFEKKPHFIQSVPFAIQNLRDLLKEAYPEYPYLCNVLRELTELKQFTDDLKKRQLTVKVMSFAYKKGIPDDPTGNGGGYVFDCRAVNNPGKYERYKPFTGLDEPVISFLEEDGEILRFLDSVYALVDASVKRYMERGFSNLSVCFGCTGGQHRSVYSAQHLAEHLNRKFGVKVELVHREQNIERTFEATV, MGSDKIHHHHHHMITKEDIVADVVTDYPKSADIFRNAGIDFCCGGQESIASAVNHKPNIDLNSLLNKLNHIDNTEGNSTINPKFLNVESLIQYIQSAYHETLKEEFKNLTPYMTKLAKVHGPSHPYLLKLQDLYREFRDSMLDHIRKEDEEDFPKLIQYSQGQDVQNIKIILEDLINDHEDTGQLLNVMNQLTSDYQTPEEACGTWKLVYQRLQNIERQTHQHVHLENHVLFKKVS, MGSDKIHHHHHHMIVEKRRFPSPSQHVRLYTICYLSNGLRVKGLLAEPAEPGQYDGFLYLRGGIKSVGMVRPGRIIQFASQGFVVFAPFYRGNQGGEGNEDFAGEDREDAFSAFRLLQQHPNVKKDRIHIFGFSRGGIMGMLTAIEMGGQAASFVSWGGVSDMILTYEERQDLRRMMKRVIGGTPKKVPEEYQWRTPFDQVNKIQAPVLLIHGEKDQNVSIQHSYLLEEKLKQLHKPVETWYYSTFTHYFPPKENRRIVRQLTQWMKNR, MGSDKIHHHHHHMIVLGHRGYSAKYLENTLEAFMKAIEAGANGVELDVRLSKDGKVVVSHDEDLKRLFGLDVKIRDATVSELKELTDGKITTLKEVFENVSDDKIINIEIKEREAADAVLEISKKRKNLIFSSFDLDLLDEKFKGTKYGYLIDEENYGSIENFVERVEKERPYSLHVPYQAFELEYAVEVLRSFRKKGIVIFVWTLNDPEIYRKIRREIDGVITDEVELFVKLR, MGSDKIHHHHHHMIWYLEKWRRRWILGRKPIRESVWQSAVDQLPFLHGLTQDEFRQLREWTSIFLHDKKINGVQGLVVTEAMRVMIAVQACLLILKLDPEYYDDWVEVIVYPGKFILDHAYTDETGIVHTRRMVASGESWQAGPVILSWEDVVHVHHESGYNVVIHEFAHKLDMLNGSANGYPPLHSDMDPRIWAVVFSRAYEIFCRQVERGEVTIMDPYAAEDPAEFFAVSSEVFFTRPYRIKQYFPEMYQQLARYYRQDPAARQECETDS, MGSDKIHHHHHHMIYIGLPQWSHPKWVRLGITSLEEYARHFNCVEGNTTLYALPKPEVVLRWREQTTDDFRFCFKFPATISHQAALRHCDDLVTEFLTRMSPLAPRIGQYWLQLPATFGPRELPALWHFLDSLPGEFNYGVEVRHPQFFAKGEEEQTLNRGLHQRGVNRVILDSRPVHAARPHSEAIRDAQRKKPKVPVHAVLTATNPLIRFIGSDDMTQNRELFQVWLQKLAQWHQTTTPYLFLHTPDIAQAPELVHTLWEDLRKTLPEIGAVPAIPQQSSLF, MGSDKIHHHHHHMIYNDRLGEVMDLNTLIKIIEKVGRIEIEDIKITADELIINIPSAPPIVIPQTPSIKEKLAEEGIIEIKDVPELDWEPPVEKYPGYIREVQFGKPKSEGGRGKVVKIGGQRALYRFEEPQPNPPVVTFDIFDIPMPGLPKPIRQFFQDVMEDPCEWAKKCVKEFGADMITIHHISTDPKIKDKSPKEAAKLMEDLLQAVDVPFVIGGSGNPQKDPLVLEACAEVAEGDRCLLASANLELDYKKIVDAAMKYDHNVLAWSIMDPNMARDLNRKLVEAGLDPNRIVMDPTTCALGYGIEFSINAMVRLRLNGLKGDELVNMPMSSGTTNAIGAREAWMNNPEWGPREYRLPLWEITTGITMMMCGVDLFMMLNPISVKTLKEIGKTLTTKPGEVKLNTNNYEWIVSP, MGSDKIHHHHHHMKAMAMTPKPTAAIVGMGDAYASMQDRKDPIQLAVAATHKALADAGITKDQVDAVFTGRSPWADKRSQWSNIFCSHMHMPVTITSEITMHGAGLNATVAMAAQMIAAGRAQYVLCLQSDATELFVDAVAMGAEADADPQFEIPYGPTIPALYAQAACRYFHEFGITEEDLADVAIANQSWAMHHPHAAKARFGSIDRAKVLSSPYVATPLRRWMCSTWGGGTGGALVVTSVDNARTAQDPVYVMGYGSATTHEYLGDRMNMRRCRYPSLGAFPNLTHTATAEAARQAYESSGLTPADIDMAQISVNFAHMGPLIMEDLGFAAKGRGMDLYRAGRTGVDGDLPIDTNGGWLSFGQPGISCNMDSYAEAVRQLRGNALGRAPARRPRTVLVQGSGGMLAAGSVTILASEL, MGSDKIHHHHHHMKAVLVEQPGSSEQLKVVEREIPKIKEGWSLVKIKGFGINRSEIFTRKGYSPSVVFPRVLGIECVGIIEETSDKNHFFHGQKVVSIMGEMGRAFDGSYAEYVLLPNEQIYPIKTNLTWDKLAAAPESYYTAYGAYKNLKLKKQDLVLVRAGASGVALAFLNLLKASLPEIKVTASVRSLAKKQQLLDSGYDEVIIDRDSCLQTKQKFDKVLDLIGPACIDDTLNHVADGGIICLVGLLGGQWTLDNFDPIMALQNNIYLTTFYSGNINLNKLQELFDFIAKYAVPIKVEKIFTIDHIKEAHDYLESPQAFGKVIVLNGVA, MGSDKIHHHHHHMKDNPISPTIPLDQDGVHHGFLKLPYSRDDSAWGSVMIPITVIQNGAGKTALLTGANHGDEYEGPVALQELAATTRAEDVTGRLIIVPYFNYPAFRASARTSPIDRGNLNRAFPGRPDGTVTQKIADYFQRTLLPMADVAVDFHSGGKTLDFVPFAAAHILEDKVLQDACFAAMQAFNAPYSVQLLEIDSEGMYDTAVEEMGKVLVTTELGGGGMSTARSNAIAKKGLRNVLIHFGILQGEMQIDPSVTLDMPDGDCYLFSEHDGLFEIMIDLGEPVQEGDLVARVWSPDRTGEAPVEYRARRSGVLISRHFPGMIKSGDCAAVIGVVEG, MGSDKIHHHHHHMKDRSFDTLQEAVDVLSLTLNGPVTLEDREHRLLAYSKHSHETDSARIETIMNRQVPDRVIEGLWSSGLLQKLNQTDEPIRIPGIPAVGLGNRVAISIRQQQFVLGYIWVLELEEPLTDEQLNDLKDMVSLIRAMLIKQQETRFRRRLEREERWRHLYQGTETVAEVKRRFQAEGEPLPERGVVVQFFCERTIKEEHEQALSFISEKVKSRILVTFAMLIDGKWTVYLTDSLKKPLDEQVVKHFIDQWIRSWNDQFSYANVLAGVGQHCSQLTDVSESFHQAEKVIELKGEFAYELDKVYYFHELGFYRIIVDSVPILESETVQTLAAYDQKQGTELLQTLEAFLDVDGRNQAAAALLHVHPNTLNYRMKRIYELTGLDVKNMKDKVSLYLELKLRRWRNRVE, MGSDKIHHHHHHMKELKIIFIPGWGMEEGVWTLVLPYFKEYSVQCINWRNVKEQSEFAGRIIDVAKDENVILVGWSLGALAAVQAHKKIQTKGIVLIGGTPKFTNTSDYTSGWNALHVERLKKNVARKKEDTLKRFYENMFTKDELKENTSFEEIALNFKGDSIQSLQLGLDYLIETDMRNELIDVKVPLLLLHGEQDVICPLSAAHSMTENANAKLKVVSEAGHALCVTNFEYCANEIIQFVEGIRHDQQNVTTKTI, MGSDKIHHHHHHMKETSWDDYKIAYQVALDGSLSRAGVSLRINHATVLRRINQLEQALEVKLFIRHQRGYKLTDAGCVLMDEMPEMLAKFSSLENKLQNVEGDISGELRITTVSSFSPVITPALKAFRAKYPKIRLKLISTDDIVPLDSGAAHVSLRAGPSPVGVDLVVKNLIKLETAYHATQDYIDEFGQPKTINEFNDHQWVLPTPEKYRIPFVNYIVDKIDKNRIVFQSNNFSDIHDAVIAGMGIGPLSDHQASLNPSMVKIDLDIPKNGESIWFVYHKDLKHSARIQSFYHFLKAALSDIEQEHLRISDSKTNKD, MGSDKIHHHHHHMKEVVKLVLLGERQNSLNLSLYFNKYPPTIIYPEVLEDRNKKLASPSGSQRKISLLVLNQGVLQFNKIKETIEKSLPIETKVKLPQKAYELYKKYYQDYTDMLNSLHAITGKFKTQSRLVVGLGDESVYETSIRLLRNYGVPYIPGSAIKGVTRHLTYYVLAEFINEGNDFYKRAKTVQDAFMKGDPKEILSNAKVPERCSRLCKEFLRIFGEKKVPEIIDELIRIFGTQKKEGEVVFFDAIPIAEEIADKPILELDIMNPHYGPYYQSGEKNVPPPGDWYDPIPIFFLTVPKDVPFLVAVGGRDRELTEKAFSLVKLALRDLGVGAKTSLGYGRLVEYV, MGSDKIHHHHHHMKFKERLQYLRLEKELSEIQLSKKVGISESVIRLYERGKLRIDLEHLHKLAAFFDVTPGLLLGTAFPHLPPEEALESYRVVNKLLEIRNEERKDEEDSPLFIDTLAQLAAESNKSDNKASNRQATIRAGVVAVYHKIVSAHSEANQEFIEDYWPVNTTVMQIYGHDISNYFYLRVHGDFMEPTIKNQSIVLAKRQVQVDNNDLAVVLYEQSPAAVKRLNRYEDKIILLCDNKAHPAQICEQEKCIILGKVLWKPK, MGSDKIHHHHHHMKFTDIEYFDKLSELESFSKTAIFFNVSQPTISFAIQRLENEMKKTLINRNQSHGEISLTEAGKVFEKHAKKILQEVVAAHEEIDRMNQPTIEFGLPQIIGNYYLPKLVKHFVGNPFFQNVATNEAGSNLLLGALKNRRLDLAIISSVEPVKIEGLETIEIDRKKYSIVVNKDNPLAKQKKVSFEDLADEKFVSLKEGNVHPIAFRKLEETYNVYPKIIYETPDINILKKMIAEKTGIGFIVEIAVEKQDNLATLELSNEKVPEFIISFVYKKDLQIPGIKRIVEELRNNSVFDQDR, MGSDKIHHHHHHMKGISHRIAIPLILEVGNNKIYNIGQIIKKGNFKRVSLYFGEGIYELFGETIEKSIKSSNIEIEAVETVKNIDFDEIGTNAFKIPAEVDALIGIGGGKAIDAVKYMAFLRKLPFISVPTSTSNDGFSSPVASLLINGKRTSVPAKTPDGIVVDIDVIKGSPEKFIYSGIGDLVSNITALYDWKFEEENHKSIIDDFAVMISKKSVNSFVRTDFKSIKDEVFLKELVDSLTMNGIAMEIAGNSSPASGAEHLISHALDKFLPNPQLHGIQVGVATYIMSKVHKHREERIKKILSDTGFFNYVKGLNMKKSDFKRAISEAHLIKPARYTYLHVEKNCETAKEIVDTDEILRNILV, MGSDKIHHHHHHMKHIHIIGIGGTFMGGIAAIAKEAGFEVSGCDAKMYPPMSTQLEALGIGVYEGFDTAQLDEFKADVYVIGNVAKRGMDVVEAILNRGLPYISGPQWLAENVLHHHWVLGVAGTHGKTTTASMLAWVLEYAGLAPGFLIGGVPENFSVSARLPQTPRQDPNSQSPFFVIEADEYDTAFFDKRSKFVHYRPRTAVLNNLEFDHADIFADLGAIQTQFHHLVRTVPSEGLIVCNGRQQSLQDTLDKGCWTPVEKFGTEHGWQAGEANADGSFDVLLDGKKAGHVAWSLMGGHNRMNALAVIAAARHAGVDIQTACEALSTFKNVKRRMEIKGTANGITVYDDFAHHPTAIETTIQGLRQRVGGARILAVLEPRSNTMKLGTMKAALPASLKEADQVFCYAGGADWDVAEALAPLGGRLHVGKDFDAFVAEIVKNAEAGDHILVMSNGGFGGIHTKLLDALR
